Laboratory results reported in patent publication US20170355774A1 (Regeneron, published 2017).
One block for each binder: values may come before it.

How the values were obtained:
[1] = biological target: T1, hGITR.mmh (human); assay: SPR 37C, mAb capture
T1 construct: soluble monomeric construct; also called human (h) GITR.mmh; monomeric human GITR
T1 chain: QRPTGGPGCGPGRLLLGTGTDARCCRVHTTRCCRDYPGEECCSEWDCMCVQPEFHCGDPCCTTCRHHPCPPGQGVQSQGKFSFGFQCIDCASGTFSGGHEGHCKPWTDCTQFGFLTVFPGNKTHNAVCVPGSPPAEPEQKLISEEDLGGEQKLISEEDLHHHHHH

[2] = biological target: T2, hGITR.mFc (human); assay: SPR 37C, mAb capture
T2 construct: soluble dimeric construct with mouse Fc; also called dimeric human GITR
T2 chain: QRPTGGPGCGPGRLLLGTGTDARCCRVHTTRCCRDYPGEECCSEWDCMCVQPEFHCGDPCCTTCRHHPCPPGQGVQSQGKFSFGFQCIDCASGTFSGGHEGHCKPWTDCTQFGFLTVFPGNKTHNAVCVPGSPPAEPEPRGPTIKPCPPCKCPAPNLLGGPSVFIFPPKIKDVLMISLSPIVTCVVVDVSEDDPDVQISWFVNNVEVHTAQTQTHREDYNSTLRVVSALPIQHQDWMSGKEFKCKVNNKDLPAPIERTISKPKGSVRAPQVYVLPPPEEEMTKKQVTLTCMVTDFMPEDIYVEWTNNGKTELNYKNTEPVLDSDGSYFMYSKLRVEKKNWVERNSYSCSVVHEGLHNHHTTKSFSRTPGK

[3] = biological target: T3, mfGITR.mmh (Macaca fasicularis); assay: SPR 37C, mAb capture
T3 construct: soluble monomeric construct; also called Macaca fasicularis (mf) GITR.mmh; cynomolgus GITR protein
T3 chain: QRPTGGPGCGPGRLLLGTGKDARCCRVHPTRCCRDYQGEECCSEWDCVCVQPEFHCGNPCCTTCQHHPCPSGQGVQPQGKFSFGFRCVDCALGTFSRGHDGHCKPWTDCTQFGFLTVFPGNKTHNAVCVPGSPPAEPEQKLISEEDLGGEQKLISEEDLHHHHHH

[4] = biological target: T4, human GITR (amino acids M1-V241, NCBI Accession #NP_004186.1) expressed on cells (human, UniProt Q9Y5U5 26-241); assay: cell-based or functional assay
T4 sequence: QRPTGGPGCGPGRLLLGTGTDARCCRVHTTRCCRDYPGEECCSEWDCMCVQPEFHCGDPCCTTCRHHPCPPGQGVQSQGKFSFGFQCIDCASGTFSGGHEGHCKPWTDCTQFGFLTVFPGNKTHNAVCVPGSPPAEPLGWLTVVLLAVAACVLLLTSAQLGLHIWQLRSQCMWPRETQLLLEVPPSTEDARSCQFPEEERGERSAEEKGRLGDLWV

[5] = biological target: T4, human GITR (amino acids M1-V241, NCBI …); assay: cell-based or functional assay; remark: listed apart in the source
[6] = biological target: T4, human GITR (amino acids M1-V241, NCBI …); assay: cell-based or functional assay; remark: listed apart in the source
[7] = biological target: T4, human GITR (amino acids M1-V241, NCBI …); assay: cell-based or functional assay; remark: listed apart in the source
[8] = biological target: T4, human GITR (amino acids M1-V241, NCBI …); assay: ECL cell binding, hGITR/HEK293-D9
In short: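 Cells blocked with 2% BSA, then antibody dilutions from 1.7 pM to 100 nM added 1 h at RT. Bound antibody detected with SULFO-TAG anti-human kappa antibody, electrochemiluminescence read, RLU fitted by four-parameter logistic; signal at 100 nM on hGITR cells versus parental cells also recorded.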

[9] = biological target: T4, human GITR (amino acids M1-V241, NCBI …); assay: cell-based or functional assay; remark: listed apart in the source

Kd [1]: 32700 pM | koff [1]: 0.00738 s⁻¹ | kon [1]: 225000 M⁻¹ s⁻¹ | t½ [1]: 1.6 min | Kd [2]: 1080 pM | koff [2]: 0.00181 s⁻¹ | kon [2]: 1.68e+06 M⁻¹ s⁻¹ | t½ [2]: 6.4 min | Kd [3]: 58700 pM | koff [3]: 0.0112 s⁻¹ | kon [3]: 190000 M⁻¹ s⁻¹ | t½ [3]: 1 min | % Activation, NF-kB-Luc, non-anchored [4]: 45% | % Blocking, NF-kB-Luc, non-anchored [4]: 70% | EC50, hGITR activation, NF-kB-Luc, non-anchored [4]: 800 pM | IC50, blocking of hGITRL stimulation, NF-kB-Luc, non-anchored [4]: 2300 pM | fold activation, T-cell proliferation, plate-bound Ab 10.6 nM, donor 1 [5]: 1 fold | fold activation, T-cell proliferation, plate-bound Ab 10.6 nM, donor 2 [5]: 4 fold | fold activation, T-cell proliferation, plate-bound Ab 10.6 nM, donor 3 [5]: 4 fold | fold activation, T-cell proliferation, plate-bound Ab 10.6 nM, donor 4 [5]: 12 fold | fold activation, T-cell proliferation, plate-bound Ab 10.6 nM, donor 5 [5]: 4 fold | fold activation, T-cell proliferation, plate-bound Ab 10.6 nM, donor 6 [5]: 14 fold | fold activation, T-cell proliferation, plate-bound Ab 10.6 nM, donor 7 [5]: 4 fold | fold activation, T-cell proliferation, plate-bound Ab 10.6 nM, donor 8 [5]: 1 fold | fold activation, T-cell proliferation, plate-bound Ab 10.6 nM, mean [5]: 5 fold | fold activation, T-cell proliferation, 33 nM, FcgR anchored, donor 1 [6]: 1.2 fold | fold activation, T-cell proliferation, 33 nM, FcgR anchored, donor 2 [6]: 0.9 fold | fold activation, T-cell proliferation, 33 nM, FcgR anchored, donor 3 [6]: 1.2 fold | fold activation, T-cell proliferation, 33 nM, FcgR anchored, donor 4 [6]: 1.3 fold | fold activation, T-cell proliferation, 33 nM, FcgR anchored, donor 5 [6]: 1.1 fold | fold activation, T-cell proliferation, 33 nM, FcgR anchored, mean [6]: 1.1 fold | fold activation, T-cell proliferation, 22 nM, non-anchored, donor 1 [7]: 0.7 fold | fold activation, T-cell proliferation, 22 nM, non-anchored, donor 2 [7]: 1.2 fold | fold activation, T-cell proliferation, 22 nM, non-anchored, donor 3 [7]: 1 fold | fold activation, T-cell proliferation, 22 nM, non-anchored, donor 4 [7]: 0.9 fold | fold activation, T-cell proliferation, 22 nM, non-anchored, mean [7]: 0.9 fold | Average Signal (RLU) at 100 nM [8]: 10300 RLU | EC50 [8]: 700 pM
B1: H4H14516P (antibody, human IgG4, V domains shown)
VH: EVQLVESGGGLVQPGGSLRLSCAASGFTFSNYEMYWVRQAPGKGLEWVSYISSSGTTIYYADSVKGRFSVSRENARSSLYLQMNSLRVEDSAVYFCAKYNWNSFYGLDVWGQGTTVTVSS
VL: AIQMTQSPSSLSASVGDRVTITCRASQDIRNDLGWYQQKPGKAPKLLISAASSLQGGVPSRFSGSGSGTDFTLTISSLQPADFATYYCLQEYNYALTFGGGTKVEIK
notes: human IgG4 (H4H)

Kd [1]: 45700 pM | koff [1]: 0.014 s⁻¹ | kon [1]: 307000 M⁻¹ s⁻¹ | t½ [1]: 0.8 min | Kd [2]: 847 pM | koff [2]: 0.00135 s⁻¹ | kon [2]: 1.6e+06 M⁻¹ s⁻¹ | t½ [2]: 8.5 min | Kd [3]: 41700 pM | koff [3]: 0.00765 s⁻¹ | kon [3]: 183000 M⁻¹ s⁻¹ | t½ [3]: 1.5 min | % Activation, NF-kB-Luc, non-anchored [4]: 70% | % Blocking, NF-kB-Luc, non-anchored [4]: -2% | EC50, hGITR activation, NF-kB-Luc, non-anchored [4]: 1000 pM | EC50, hGITR activation, NF-kB-Luc, FcgR anchored [9]: 40 pM | Fold Activation over basal signal, NF-kB-Luc, FcgR anchored [9]: 8 fold | IC50, blocking of hGITRL stimulation, NF-kB-Luc, FcgR anchored [9]: 200 pM | fold activation, T-cell proliferation, plate-bound Ab 10.6 nM, donor 1 [5]: 0 fold | fold activation, T-cell proliferation, plate-bound Ab 10.6 nM, donor 2 [5]: 2 fold | fold activation, T-cell proliferation, plate-bound Ab 10.6 nM, donor 3 [5]: 2 fold | fold activation, T-cell proliferation, plate-bound Ab 10.6 nM, donor 4 [5]: 2 fold | fold activation, T-cell proliferation, plate-bound Ab 10.6 nM, donor 5 [5]: 2 fold | fold activation, T-cell proliferation, plate-bound Ab 10.6 nM, donor 6 [5]: 12 fold | fold activation, T-cell proliferation, plate-bound Ab 10.6 nM, donor 7 [5]: 1 fold | fold activation, T-cell proliferation, plate-bound Ab 10.6 nM, donor 8 [5]: 0 fold | fold activation, T-cell proliferation, plate-bound Ab 10.6 nM, mean [5]: 3 fold | fold activation, T-cell proliferation, 33 nM, FcgR anchored, donor 1 [6]: 1 fold | fold activation, T-cell proliferation, 33 nM, FcgR anchored, donor 2 [6]: 1.3 fold | fold activation, T-cell proliferation, 33 nM, FcgR anchored, donor 3 [6]: 1.3 fold | fold activation, T-cell proliferation, 33 nM, FcgR anchored, donor 4 [6]: 1.6 fold | fold activation, T-cell proliferation, 33 nM, FcgR anchored, donor 5 [6]: 1.5 fold | fold activation, T-cell proliferation, 33 nM, FcgR anchored, mean [6]: 1.3 fold | fold activation, T-cell proliferation, 22 nM, non-anchored, donor 1 [7]: 0.7 fold | fold activation, T-cell proliferation, 22 nM, non-anchored, donor 2 [7]: 1.1 fold | fold activation, T-cell proliferation, 22 nM, non-anchored, donor 3 [7]: 0.8 fold | fold activation, T-cell proliferation, 22 nM, non-anchored, donor 4 [7]: 0.8 fold | fold activation, T-cell proliferation, 22 nM, non-anchored, mean [7]: 0.9 fold | Average Signal (RLU) at 100 nM [8]: 7500 RLU | EC50 [8]: 8000 pM
B2: H4H14475P (antibody, human IgG4, V domains shown)
VH: QVQLVESGGGVVQPGRSLRLSCAASGTIFSTHGMHWVRQAPGKGLEWVAVISYDGNKKYYAGSVKGRFTISRDNSKNTLYLQMNDVRSEDTAVYHCTTDITGITDYWGQGTLVTVSS
VL: DIQMTQSPSSLSASVGDRVTITCRASQGIGNDLGWYQQKLGKAPKRLIYAASSLESGVPSRFSGSGSGTEFILTISSLQAEDFATYYCLQHNGFPTFGQGTKVEIK
notes: human IgG4 (H4H)

% Activation, NF-kB-Luc, non-anchored [4]: 20% | % Blocking, NF-kB-Luc, non-anchored [4]: 100% | EC50, hGITR activation, NF-kB-Luc, non-anchored [4]: 1200 pM | IC50, blocking of hGITRL stimulation, NF-kB-Luc, non-anchored [4]: 700 pM | EC50, hGITR activation, NF-kB-Luc, FcgR anchored [9]: 20 pM | Fold Activation over basal signal, NF-kB-Luc, FcgR anchored [9]: 7 fold | IC50, blocking of hGITRL stimulation, NF-kB-Luc, FcgR anchored [9]: 100 pM | Average Signal (RLU) at 100 nM [8]: 4620 RLU | EC50 [8]: 250 pM
B3: H1H14512P (antibody, human IgG1, V domains shown)
VH: QVQLVESGGGVVQPGRSLRLSCAVSGFTLSSYGMDWVRQAPGKGLEWVAVIWYDGSNKYYSDSVKGRFTISRDNSKNTLFLQMNSLRADDTAVYYCARDGELGLDYYSGMDVWGQGTTVTVSS
VL: DIQMTQSPSSLSASVGDRVTITCRASQDIRNDLGWYQQKPGKAPKRLIYGASSLQSGVPSRFSGSGSGTEFTLTISSLQPEDFATYYCLQLNSYPRTFGQGTKVEIK
notes: human IgG1 (H1H)
